Measured values as given in patent publication US12043671B2, “Antibodies targeting an amphiregulin-derived cell surface neo-epitope” (Gundersen Lutheran Medical Foundation, Inc., priority 2021, dated 2024).
Non-standard residues stand in square brackets, D forms with d. Residues, ends and D or L forms follow the SMILES beside them. *: point of attachment. Dolaproine = CO[C@@H]([C@@H]1CCCN1)[C@@H](C)C(=O)O; Dil = CC[C@H](C)[C@H](NC)[C@@H](CC(=O)O)OC; X1 = C[C@@H](N*)[C@@H](O)c1ccccc1; NMeV = CN[C@H](C(=O)O)C(C)C

Tests used:
MCF-7 cells = assay: Tubulin staining (microtubule integrity); type: cell-based, human; conditions: 48 h treatment
Method: FIGS. 4A-4E. In vitro 1A3-MMAE cytotoxicity in MCF-7 (FIG. 4A) and MCF-7F (FIG. 4B) cells measured by MTT assay after treatment with 1A3-MMAE, 1A3 or MMAE. FIG. 4C: Clonogenic growth of MCF-7 or MCF-7F cells after exposure to 1A3-MMAE and replating. FIG. 4D: The quantification of clonogenic growth assays in FIG. 4C. (FIG. 4E). Tubulin staining of MCF-7 cells after 48 h treatment with MMAE, 1A3, 1A3-MMAE (40× magnification).

MCF7 breast cancer cells = assay: MTT cytotoxicity assay; conditions: MCF7, 1.56-200 nM, 72 h
Method: (§1) The cells were seeded at a density of 5000 cells/well in 96-well plates. Approximately 24 h after cell seeding, the cells were treated with varying doses (1.56, 3.125, 6.25, 12.5, 25, 50, 100 and 200 nM) of MMAE, 1A3 and 1A3-VC-PAB-MMAE. Untreated cells were used as control. After incubating for 72 h, the medium was aspirated and 50 μL of serum-free media and 50 μL of MTT solution (5 mg/mL solution in PBS) was added into each well; the cells were then incubated for 3 h at 37° C. The formazan crystals formed were dissolved with 4 mM HCl, 0.1% NP40 in isopropanol. The absorbance was measured at 590 nm using VersaMax Microplate Reader (Molecular Devices LLC, San Jose, California, USA). The assays were performed in triplicate.

[1] = system: MCF7-F (fulvestrant-resistant MCF7) breast cancer cells; assay: MTT cytotoxicity assay; conditions: 1.56-200 nM, 72 h
Method: as §1

MCF7 cells = assay: Internalization and intracellular localization of 1A3-pHrodo, live-cell imaging; type: cell-based, human
Method: In order to study internalization, 1A3 was conjugated with pHrodo iFL Red dye using pHrodo iFL Red Microscale Protein Labeling Kit (P36014, Thermo Fisher Scientific). MCF7 cells were seeded in 12 mm Nunc Glass Bottom Dish, at a density of 1 ×10^5 cells/dish. After allowing the cells to attach overnight, the cells were incubated for 60 min with […] Hoechst dye for nuclei staining and LysoTracker® Green DND-26 (Thermo Fisher Scientific) for lysosomal labeling. The cells were then incubated with 1A3-pHrodo (2 μg/mL) for 20 min at 37° C. After washing the wells with PBS, the cells were supplemented with 1× live-cell imaging solution (Molecular probes, Thermo Fisher Scientific). Fluorescence images were acquired at 30 min intervals for 2.5 h with the Olympus 1×71 inverted fluorescence microscope (Olympus, Shinjuku, Tokyo, Japan). TAPI-2 (20 μM)—pre-treatment was performed overnight, with DMSO serving as a control.

[2] = molecular target: T1, peptide representing the neo-epitope of the ADAM17-cleavage product of human AREG (Homo sapiens, UniProt P15514); assay: ELISA of rabbit IgG candidates against peptides representing cleaved and full length AREG; type: binding; conditions: IgG format; cleaved vs uncleaved AREG peptide
T1 construct: host or cells: synthetic peptide
Description: FIGS. 1A-1C. Isolation of antibodies that selectively recognize a peptide representing cleaved AREG. FIG. 1A: Schematic representation of the AREG cleavage and EGFR activation process, one consequence of which is the internalization of the small transmembrane fragment that remains cell-associated after TACE/ADAM17-mediated cleavage. FIG. 1B: Schematic representation of phage panning strategy using a peptide representing the cleaved AREG neo-epitope adhered to the well and a peptide representing the non-cleaved AREG region in the liquid phase.
Rabbit monoclonal IgG antibodies specific to cleaved-AREG were identified in contracted screening (Oak Biosciences Inc., Sunnyvale, CA, USA) using a recombinant Rabbit naïve phage display library (scFv format, VK-linker-VH) screening platform after four rounds of panning and ELISA validation. For panning, phage was selected against a peptide modeling the ADAM17-cleaved cell-associated epitope of AREG,^12 represented by the N-terminal region of THSMIDSSLSKI (SEQ ID NO: 2), and counter-selected against a peptide spanning this region (SMKTHSMIDSSLSKIAC; SEQ ID NO: 9), representing uncleaved AREG. […] GMF-1A3, referred to hereafter as simply “1A3”, was the antibody chosen for further characterization in this Example.

Molecule: CC[C@H](C)[C@@H]([C@@H](CC(=O)N1CCC[C@H]1[C@H](OC)[C@@H](C)C(=O)N[C@H](C)[C@@H](O)c1ccccc1)OC)N(C)C(=O)[C@@H](NC(=O)[C@@H](NC)C(C)C)C(C)C [MMAE, monomethyl auristatin E, reference compound] (H-[NMeV]V[Dil][Dolaproine]-X1)
- tubulin disruption (microtubule integrity) (MCF-7 cells): exhibited tubulin disruption
- cytotoxicity by MTT assay (MCF7 breast cancer cells): potently killed the cells
- cytotoxicity by MTT assay [1]: potently killed the cells

B1: 1A3-pHrodo (conjugate)
VH: QSVKESEGRLVTPGTPLRLTCTVAGYSLSRYHMCWVRQAPGKGLEWIGMIGGSGRTDYASWAKGRFTISKTSTTVDLKITSPTTEDTATYFCSTVYTDSDGDFWGPGTLVTVSS
VL: AELDMTQTPSSKSVPVGGTVTINCQASESVYSNDRLAWFQQKPGQPPKLLIYYASTLASGVPSRFKGSGSGTQFTLTISDLECADAATYYCQSCYDMSSYGVAFGGGTELEIL
- time of treatment after which red fluorescence (presence in acidic endosomes) was evident (MCF7 cells; 1A3-pHrodo 2 μg/mL): 30 min
- fluorescence development after pretreatment with ADAM17 inhibitor TAPI-2 (MCF7 cells; TAPI-2 20 μM overnight pre-treatment): prevented the development of fluorescence

B2: GMF-3A3: Rabbit monoclonal IgG specific to cleaved AREG; VH SEQ ID NO: 5, VL SEQ ID NO: 6 (antibody, V domains shown)
VH: QQQLVESGGRLVTPGTPLTLTYTVSGFSLSDYHMSWVRQAPGKGLQWIATISNRGNTYYASWAKGRFTISKTSTTVDLKITSPTTEDTATYFCARDNVHGDGVLVFYLWGPGTLVTVSS
VL: AELVMTQTPASVSEPVGGTVTIKCQASQSIGTNLAWYQQKPGQPPKRLIYKASTLASGVSSRFKGSGSGTEFTLTISDLECADAATYYCQGYYSGDSNAFGGGTEVVVK
modifications: 3A3 antibody, Heavy chain; 3A3 antibody, Light chain
- selectivity for cleaved AREG by ELISA [2]: selectivity for cleaved AREG was confirmed

B3: GMF-3E4: Rabbit monoclonal IgG specific to cleaved AREG; VH SEQ ID NO: 7, VL SEQ ID NO: 8 (antibody, V domains shown)
VH: QSVKESEGRLVTPGTPLTLTCTVSGFSLSDYWMSWVRQAPGKGLEWIGIAGYSDNTYYASRAKGRFTISKTSTTVVLKITRPTTEDTATYFCVRDLYGVYSSGTTLWGPGTLVTVSS
VL: AELVMTQTPSPVSAAVGGTVTISCQSSQSVYNNNRLAWFQQKPGQPPKLLIYYASTLASGVSSRFKGSGSGTQFTLIISDVVCDDAATYYCQGYYSGGITGFGGGTEVVVK
modifications: 3E4 antibody, Heavy chain; 3E4 antibody, Light chain
- selectivity for cleaved AREG by ELISA [2]: selectivity for cleaved AREG was confirmed
